The values that follow come from patent US20240368263A1 (PROMETHEUS BIOSCIENCES, published 2024).

Assay [1] deals with T1, human TL1A (Fitzgerald, Prod. #30R-AT070) (human, UniProt O95150 72-251, limits assumed, biotinylated with EZ-Link Sulfo-NHS-LC-Biotin where used as soluble antigen).
T1 construct: also called TNFSF15; biotinylated human TL1A
T1 sequence (looked up): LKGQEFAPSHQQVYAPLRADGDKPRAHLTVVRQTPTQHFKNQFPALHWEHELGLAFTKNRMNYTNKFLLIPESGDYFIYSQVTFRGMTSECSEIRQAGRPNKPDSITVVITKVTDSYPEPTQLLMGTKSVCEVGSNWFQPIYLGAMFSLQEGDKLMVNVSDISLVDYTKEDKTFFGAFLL
The assay can be described thus: capture lift hit at 200 pM b-TL1A, unmutated sequence.

Assay [2] concerns the target TRAIL/TNFSF10 (R&D Systems, cat. no. 375-TL/CF) (UniProt P50591 114-281). The assay can be described thus: ELISA, antigen coated at 1 µg/ml, Fab titrated. A general note: ELISA stands for enzyme-linked immunosorbent assay.
The target of assay [3] is LIGHT/TNFSF14 (R&D Systems, cat. no. 664-LI/CF) (UniProt O43557 74-240). The assay can be described thus: ELISA, antigen coated at 1 µg/ml, Fab titrated.
LIGHT/TNFSF14 (R&D Systems, cat. no. 664-LI/CF), sequence (O43557 74-240 limits assumed): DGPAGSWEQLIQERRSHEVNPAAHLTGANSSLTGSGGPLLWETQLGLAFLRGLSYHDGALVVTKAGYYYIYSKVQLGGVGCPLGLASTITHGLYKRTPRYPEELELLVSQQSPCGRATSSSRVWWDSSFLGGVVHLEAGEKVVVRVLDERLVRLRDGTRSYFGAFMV
Assay [4] has as its target T2, Fas/TNFSF6 (R&D Systems, cat. no. 126-FL/CF) (UniProt P48023 134-281).
T2 sequence (looked up): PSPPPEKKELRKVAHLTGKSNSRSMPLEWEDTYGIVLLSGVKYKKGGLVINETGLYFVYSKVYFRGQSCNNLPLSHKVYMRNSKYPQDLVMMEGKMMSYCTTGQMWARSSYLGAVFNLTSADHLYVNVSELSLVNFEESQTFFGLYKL
Briefly: ELISA, antigen coated at 1 µg/ml, Fab titrated.

Assay [5] deals with T3, membrane-associated human TL1A on transfected HEK293 cells (human, UniProt O95150 1-251).
T3 construct: whole, on cells
T3 sequence (looked up): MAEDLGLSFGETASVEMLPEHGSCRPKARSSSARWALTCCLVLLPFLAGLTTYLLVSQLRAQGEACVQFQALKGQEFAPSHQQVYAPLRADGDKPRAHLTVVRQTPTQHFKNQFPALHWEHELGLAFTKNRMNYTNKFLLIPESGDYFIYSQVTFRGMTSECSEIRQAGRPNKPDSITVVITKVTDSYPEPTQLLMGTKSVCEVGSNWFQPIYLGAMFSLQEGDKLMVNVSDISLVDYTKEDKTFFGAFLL
The assay can be described thus: flow cytometry, HEK293 cells transfected with human TL1A. On the procedure:
All the Fab variants were tested for binding to membrane-associated human TL1A. For these studies a HEK293 cell line that had been transfected with human TL1A was used. The 293 cells expressing membrane bound human TL1A were maintained in DMEM containing L-glutamine, glucose, sodium pyruvate, and phenol red (ThermoFisher cat #11995-065) plus 10% fetal bovine serum, 1X penicillin-streptomycin (Fisher cat #15140122) and 2 μg/ml puromycin (Gibco cat #A11138-03) in a 37° C. incubator with 5% CO2. Three days prior to the assay, a T-75 flask was seeded with 3×10⁶ cells so that the flask was 90-95% confluent on the day of the assay. The media was aspirated and the cell monolayer was gently washed with 5 ml PBS. Adherent cells were removed by repeatedly pipetting 10 ml ice cold 1% BSA/PBS against the monolayer. The cells were counted and 5×10⁵ were aliquoted for each sample to be analyzed. The cells were collected by centrifuging at 300× g at 4° C. for 5 minutes and the wash was discarded. The cells were resuspended in 100 μl Fab or IgG diluted in 1% BSA/PBS and placed on ice for 30 min. Next, the cells were washed with 1 ml 1% BSA/PBS and collected by centrifuging at 300× g at 4° C. for 5 min. The wash was discarded and 100 μl secondary goat F (ab′) 2 anti-human kappa FITC (Southern Biotech cat #2062-02) or goat F (ab′) 2 anti-human IgG PE (Southern Biotech cat #2043-09) conjugate, diluted 1:200 in BSA/PBS was added. Cells were placed on ice for 30 min. Finally, the cells were washed with 1 ml BSA/PBS, collected by centrifuging at 300× g at 4° C. for 5 min. The wash was removed and the cells were resuspended in 500 μl 1% BSA/PBS. One drop of Sytox AADvanced ReadyFlow Reagent (ThermoFisher cat #R37173) was added per sample and the samples were analyzed on the Attune NXT Flow Cytometer (ThermoFisher).
A general note: Flow cytometry measures light scatter and fluorescence of single cells or particles in a stream.

Assay [6] addresses T1, human TL1A (Fitzgerald, Prod. …). Briefly: capture lift hit at 15 pM b-TL1A, unmutated sequence.

TRAIL/TNFSF10 (R&D Systems, cat. no. 375-TL/CF), sequence (P50591 114-281 limits assumed): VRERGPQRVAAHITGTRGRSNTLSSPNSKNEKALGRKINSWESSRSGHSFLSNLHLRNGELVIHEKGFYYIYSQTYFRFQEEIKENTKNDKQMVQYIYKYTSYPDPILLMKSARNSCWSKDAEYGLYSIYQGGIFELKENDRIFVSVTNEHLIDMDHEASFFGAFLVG

B1: L8 (CDR graft) Fab (Fab, V domains shown)
VH: QVQLVQSGAEVKKPGASVKVSCKASGFDIQDTYMHWVRQAPGQGLEWMGRIDPASGHTKYDPKFQVRVTMTRDTSTSTVYMELSSLRSEDTAVYYCARSGGLPDVWGQGTTVTVSS
VL: EIVLTQSPGTLSLSPGERATLSCRASSSVSYMYWYQQKPGQAPRLLIYATSNLASGIPDRFSGSGSGTDFTLTISRLEPEDFAVYYCQQWSGNPRTFGGGTKLEIK
notes: Fab; also called CDR graft clone L8; CDR-grafted variant
B1: in assay [1], the binding result was “binds”.

B2: Clone L8mod Fab (Fab, V domains shown)
VH: QVQLVQSGAEVKKPGASVKVSCKASGFDIQDTYMHWVRQAPGQGLEWMGRIDPASGHTKYDPKFQGRATITTDTSASTAYLQLSSLRSEDTAVYYCARSGGLPDVWGQGTTVTVSS
VL: EIVLTQSPGTLSLSPGERATLSCRASSSVSYMYWYQQKPGQAPRLLIYATSNLASGIPDRFSGSGSGTDFTLTISRLEPEDFAVYYCQQWSGNPRTFGGGTKLEIK
notes: Fab
As for B2, the binding result in assay [2] is reported as “no binding”; in assay [3], “no binding”; in assay [4], “no binding”; in assay [5], “binds”; in assay [6], “binds”.
